From the RNAGym collection of RNA variant scans (doi:10.1093/molbev/msab373)

B1: Azoarcus group I ribozyme (parent)
chain: GUGCCUUGCGCCGGGAAACCACGCAAGGGAUGGUGUCAAAUUCGGCGAAACCUAAGCGCCCGCCCGGGCGUAUGGCAACGCCGAGCCAAGCUUCGGCGCCUGCGCCGAUGAAGGUGUAGAGACUAGACGGCACCCACCUAAGGCAAACGCUAUGGUGAAGGCAUAGUCCAGGGAGUGGCGAAAGUCACACAAACCGG

Variants of: B1
Test: reverse-splicing fitness (ratio to wild type); higher = more active; in vitro selection; Mg2+ level not given
Procedure, shortened: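 An in vitro group I ribozyme library with randomized positions was T7-transcribed and gel-purified. In triplicate, 10 pmol RNA in EPPS pH 7.5 was reacted with 50 pmoles of a 30-nt RNA substrate for 1 h at 37 °C across several added MgCl2 levels (1–48 mM), then stopped with EDTA. Products were reverse transcribed from a substrate-complementary primer, PCR-amplified and sequenced (HiSeq 4000). Fitness is a variant's read proportion after selection over that before, normalised to wild type.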

Compared with C82G A111G A145C U176A, C82G A111G A145C U176G is lower in reverse-splicing fitness: 0.267 for the first, 0.116 for the second.

First: C82G A111G A120U A145U C150A U176G
Second: C82G A111G A120U A145U C150A U176A
The reverse-splicing fitness of the first is lower: 0.00244 for the first, 0.00578 for the second.

Going from C82G A111G A120U A145U C150A U176C to C82G A111G A120U C150G U176A, the reverse-splicing fitness falls from 0.00553 to 0.00529.

Going from C82G A111G A120U C150G U176C to C82G A111G A120U C150G U176G, the reverse-splicing fitness falls from 0.00821 to 0.00299.

Going from C82G A111G A120U A145U C169A to C82G A111G A120U A145U C169G, the reverse-splicing fitness rises from 0.00239 to 0.00363.

Going from C82G A111G A120U A145U C169U to C82G A111G A120U A145G C169A U176A, the reverse-splicing fitness rises from 0.00451 to 0.00574.

First: C82G A111G A120U A145G C169A U176C
Second: C82G A111G A120U A145G C169A U176G
The reverse-splicing fitness of the first is higher: 0.00535 for the first, 0.00176 for the second.

Going from C82G A111G A145G C150U C169U U176A to C82G A111G A145G C150U C169U U176G, the reverse-splicing fitness falls from 0.0152 to 0.00678.

Compared with C82G A111G A145G C150U C169U U176C, C82G A111G A145G C150A C169U U176G is lower in reverse-splicing fitness: 0.0151 for the first, 0.00674 for the second.

Going from C82G A111G A145G C150A C169U U176C to C82G A111G A145G C150A C169U U176A, the reverse-splicing fitness falls from 0.0162 to 0.0155.

Going from C82G A111G A145G C150U C169U to C82G A111G A145G C150U C169G, the reverse-splicing fitness falls from 0.0137 to 0.0106.

Going from C82G A111G A145G C150U C169A to C82G A111G A120U C150U U176G, the reverse-splicing fitness falls from 0.0104 to 0.00497.

Going from C82G A111G A120U C150U U176C to C82G A111G A120U C150U U176A, the reverse-splicing fitness falls from 0.0164 to 0.0115.

Going from C82G A111G A145C C150U C169U U176C to C82G A111G A145C C150U C169U U176G, the reverse-splicing fitness falls from 0.0103 to 0.0062.

First: C82G A111G A145C C150U C169U U176A
Second: C82G A111G A120U A145U C150U C169G U176C
The reverse-splicing fitness of the first is higher: 0.0142 for the first, 0.00343 for the second.

Compared with C82G A111G A120U A145U C150U C169G U176G, C82G A111G A120U A145U C150U C169G U176A is higher in reverse-splicing fitness: 0.00218 for the first, 0.0031 for the second.

Going from C82G A111G A120U A145G C150U C169U U176C to C82G A111G A120U A145G C150U C169U U176A, the reverse-splicing fitness falls from 0.00574 to 0.00467.

Going from C82G A111G A120U A145G C150U C169U U176G to C82G A111G A120U C169A U176C, the reverse-splicing fitness rises from 0.00229 to 0.00309.

First: C82G A111G A120U C169A U176A
Second: C82G A111G A120U C169A U176G
The reverse-splicing fitness of the first is higher: 0.00371 for the first, 0.00169 for the second.

First: C82G A111G A120U C150A C169U U176G
Second: C82G A111G A120U C150A C169U U176A
The reverse-splicing fitness of the first is lower: 0.00229 for the first, 0.00523 for the second.

Compared with C82G A111G A120U C150A C169U U176C, C82G A111G A145U C150G U176C is higher in reverse-splicing fitness: 0.00456 for the first, 0.0287 for the second.

First: C82G A111G A145U C150G U176G
Second: C82G A111G A145U C150G U176A
The reverse-splicing fitness of the first is lower: 0.00715 for the first, 0.0185 for the second.

Going from C82G A111G A145G C150G U176A to C82G A111G A145G C150G U176G, the reverse-splicing fitness falls from 0.0145 to 0.00812.

Going from C82G A111G A145G C150G U176C to C82G A111G A120U A145U C169A U176C, the reverse-splicing fitness falls from 0.026 to 0.00207.

First: C82G A111G A120U A145U C169A U176A
Second: C82G A111G A120U A145U C169A U176G
The reverse-splicing fitness of the first is higher: 0.00206 for the first, 0.0018 for the second.

First: C82G A111G A120U C169G U176G
Second: C82G A111G A120U C169G U176C
The reverse-splicing fitness of the first is lower: 0.00169 for the first, 0.00434 for the second.

Going from C82G A111G A120U C169G U176A to C82G A111G A120U C150A U176C, the reverse-splicing fitness rises from 0.00289 to 0.00806.

First: C82G A111G A120U C150A U176A
Second: C82G A111G A120U C150A U176G
The reverse-splicing fitness of the first is higher: 0.0074 for the first, 0.00368 for the second.

Going from C82G A111G A145U C169A to C82G A111G A145C C169U U176A, the reverse-splicing fitness rises from 0.00634 to 0.0135.

First: C82G A111G A145C C169U U176G
Second: C82G A111G A145C C169U U176C
The reverse-splicing fitness of the first is lower: 0.00545 for the first, 0.0106 for the second.

Compared with C82G A111G A145U C150A C169A U176A, C82G A111G A145U C150A C169A U176C is lower in reverse-splicing fitness: 0.0154 for the first, 0.0131 for the second.

Compared with C82G A111G A145U C150A C169A U176G, C82G A111G A145G C150A C169G U176A is higher in reverse-splicing fitness: 0.00645 for the first, 0.0196 for the second.

First: C82G A111G A145G C150A C169G U176G
Second: C82G A111G A145G C150A C169G U176C
The reverse-splicing fitness of the first is lower: 0.006 for the first, 0.0258 for the second.

Compared with C82G A111G A145C C150U C169U, C82G A111G A145C C150U C169A is lower in reverse-splicing fitness: 0.0102 for the first, 0.00783 for the second.

Going from C82G A111G A145C C150U C169G to C82G A111G A120U C150G C169A U176C, the reverse-splicing fitness rises from 0.00753 to 0.00831.

First: C82G A111G A120U C150G C169A U176G
Second: C82G A111G A120U C150G C169A U176A
The reverse-splicing fitness of the first is lower: 0.00267 for the first, 0.00788 for the second.

First: C82G A111G A145C
Second: C82G A111G A145G
The reverse-splicing fitness of the first is lower: 0.392 for the first, 0.431 for the second.

Compared with C82G A111G A145U, C82G A111G A120U A145U C150U C169A is lower in reverse-splicing fitness: 0.454 for the first, 0.00289 for the second.

Going from C82G A111G A120U A145U C150U C169G to C82G A111G A120U A145U C150U C169U, the reverse-splicing fitness rises from 0.00324 to 0.00393.

First: C82G A111G A145G C150A C169A U176C
Second: C82G A111G A145G C150A C169A U176A
The reverse-splicing fitness of the first is lower: 0.0222 for the first, 0.0234 for the second.

First: C82G A111G A145G C150A C169A U176G
Second: C82G A111G A145C C150G C169G U176A
The reverse-splicing fitness of the first is lower: 0.00692 for the first, 0.0101 for the second.

Compared with C82G A111G A145C C150G C169G U176C, C82G A111G A145C C150G C169G U176G is lower in reverse-splicing fitness: 0.00856 for the first, 0.0057 for the second.
